Measurements as given in US20090105152A1.
Square brackets hold non-standard residues; d marks the D form. Primed or numbered codes have the meaning given here. Ends that are not written are not given here. pY = N[C@@H](Cc1ccc(OP(=O)(O)O)cc1)C(=O)O; Phe(4-Cl) = N[C@@H](Cc1ccc(Cl)cc1)C(=O)O; Phe(3-F) = N[C@@H](Cc1cccc(F)c1)C(=O)O; Pzc(2) = piperazine-2-carboxylic acid; Ala(Pip) = (4-piperidin-1-yl)alanine; Phe(2-F) = N[C@@H](Cc1ccccc1F)C(=O)O; Arg(Me) = CNC(=N)NCCC[C@H](N)C(=O)O; Hyp = O=C(O)[C@@H]1C[C@@H](O)CN1; His(3Me) = 3-methylhistidine; Orn = NCCC[C@H](N)C(=O)O; Aib = CC(C)(N)C(=O)O; Ahx = NCCCCCC(=O)O; azaGly = NNC(=O)O

The binders below were run against human OT7T175 (metastin receptor) (human) (UniProt Q969F8) (assay: cell-based or functional assay).
human OT7T175 (metastin receptor) (human), sequence (Q969F8 whole entry L364H): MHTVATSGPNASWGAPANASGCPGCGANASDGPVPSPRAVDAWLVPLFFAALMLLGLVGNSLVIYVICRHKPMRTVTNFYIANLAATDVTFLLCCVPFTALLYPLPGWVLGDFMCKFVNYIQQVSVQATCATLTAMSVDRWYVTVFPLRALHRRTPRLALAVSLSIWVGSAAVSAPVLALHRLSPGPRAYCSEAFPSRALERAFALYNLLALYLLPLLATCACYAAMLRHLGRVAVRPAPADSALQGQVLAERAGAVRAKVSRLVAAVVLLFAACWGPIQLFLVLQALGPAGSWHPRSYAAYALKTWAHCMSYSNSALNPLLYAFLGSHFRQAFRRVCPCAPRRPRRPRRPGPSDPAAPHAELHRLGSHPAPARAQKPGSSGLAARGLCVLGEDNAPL

Row | Binder | intracellular Ca ion level-increasing activity [specific activity to Metastin (1-54)] (relative to Metastin (1-54))
1 | Ac-[Ahx]NTF[azaGly]L[Arg(Me)]W-NH2 (SMILES CNC(=N)NCCC[C@H](NC(=O)[C@H](CC(C)C)NC(=O)NNC(=O)[C@H](Cc1ccccc1)NC(=O)[C@@H](NC(=O)[C@H](CC(N)=O)NC(=O)CCCCCNC(C)=O)[C@@H](C)O)C(=O)N[C@@H](Cc1c[nH]c2ccccc12)C(N)=O) [des(1-2)-Ac-[Acp3,Thr5,AzaGly7,Arg(Me)9,Trp10]MS10] | 3.7
2 | [Ahx]NTF[azaGly]L[Arg(Me)]W-NH2 (N-terminus assumed; SMILES CNC(=N)NCCC[C@H](NC(=O)[C@H](CC(C)C)NC(=O)NNC(=O)[C@H](Cc1ccccc1)NC(=O)[C@@H](NC(=O)[C@H](CC(N)=O)NC(=O)CCCCCN)[C@@H](C)O)C(=O)N[C@@H](Cc1c[nH]c2ccccc12)C(N)=O) [des(1-2)-[Acp3,Thr5,AzaGly7,Arg(Me)9,Trp10]MS10] | 8.9
3 | Ac-[dY]GNT[Phe(4-Cl)][azaGly]L[Arg(Me)]W-NH2 (SMILES CNC(=N)NCCC[C@H](NC(=O)[C@H](CC(C)C)NC(=O)NNC(=O)[C@H](Cc1ccc(Cl)cc1)NC(=O)[C@@H](NC(=O)[C@H](CC(N)=O)NC(=O)CNC(=O)[C@@H](Cc1ccc(O)cc1)NC(C)=O)[C@@H](C)O)C(=O)N[C@@H](Cc1c[nH]c2ccccc12)C(N)=O) [des(1)-Ac-[D-Tyr2,Gly3,Thr5,Phe(4Cl)6,AzaGly7,Arg(Me)9,Trp10]MS10] | 1.5
4 | Ac-[dY][Aib]NT[Phe(4-Cl)][azaGly]L[Arg(Me)]W-NH2 (SMILES CNC(=N)NCCC[C@H](NC(=O)[C@H](CC(C)C)NC(=O)NNC(=O)[C@H](Cc1ccc(Cl)cc1)NC(=O)[C@@H](NC(=O)[C@H](CC(N)=O)NC(=O)C(C)(C)NC(=O)[C@@H](Cc1ccc(O)cc1)NC(C)=O)[C@@H](C)O)C(=O)N[C@@H](Cc1c[nH]c2ccccc12)C(N)=O) [des(1)-Ac-[D-Tyr2,Aib3,Thr5,Phe(4Cl)6,AzaGly7,Arg(Me)9,Trp10]MS10] | 2.6
5 | Ac-[dY][His(3Me)]NTF[azaGly]L[Arg(Me)]W-NH2 [des(1)-Ac-[D-Tyr2,His(3Me)3,Thr5,AzaGly7,Arg(Me)9,Trp10]MS10] | 1.1
6 | Ac-[dY][Hyp]NT[Phe(3-F)][azaGly]L[Arg(Me)]W-NH2 (SMILES CNC(=N)NCCC[C@H](NC(=O)[C@H](CC(C)C)NC(=O)NNC(=O)[C@H](Cc1cccc(F)c1)NC(=O)[C@@H](NC(=O)[C@H](CC(N)=O)NC(=O)[C@@H]1C[C@@H](O)CN1C(=O)[C@@H](Cc1ccc(O)cc1)NC(C)=O)[C@@H](C)O)C(=O)N[C@@H](Cc1c[nH]c2ccccc12)C(N)=O) [des(1)-Ac-[D-Tyr2,Hyp3,Thr5,Phe(3F)6,AzaGly7,Arg(Me)9,Trp10]MS10] | 2.6
7 | Ac-[dY][Hyp]NT[Phe(2-F)][azaGly]L[Arg(Me)]W-NH2 (SMILES CNC(=N)NCCC[C@H](NC(=O)[C@H](CC(C)C)NC(=O)NNC(=O)[C@H](Cc1ccccc1F)NC(=O)[C@@H](NC(=O)[C@H](CC(N)=O)NC(=O)[C@@H]1C[C@@H](O)CN1C(=O)[C@@H](Cc1ccc(O)cc1)NC(C)=O)[C@@H](C)O)C(=O)N[C@@H](Cc1c[nH]c2ccccc12)C(N)=O) [des(1)-Ac-[D-Tyr2,Hyp3,Thr5,Phe(2F)6,AzaGly7,Arg(Me)9,Trp10]MS10] | 6.4
8 | Ac-[dY][Ala(Pip)]NTF[azaGly]L[Arg(Me)]W-NH2 (also: position 2 DL, both configurations) [des(1)-Ac-[D-Tyr2,DL-Ala(Pip)3,Thr5,AzaGly7,Arg(Me)9,Trp10]MS10] | 2
9 | Ac-[dY]ENT[Phe(3-F)][azaGly]L[Arg(Me)]W-NH2 (SMILES CNC(=N)NCCC[C@H](NC(=O)[C@H](CC(C)C)NC(=O)NNC(=O)[C@H](Cc1cccc(F)c1)NC(=O)[C@@H](NC(=O)[C@H](CC(N)=O)NC(=O)[C@H](CCC(=O)O)NC(=O)[C@@H](Cc1ccc(O)cc1)NC(C)=O)[C@@H](C)O)C(=O)N[C@@H](Cc1c[nH]c2ccccc12)C(N)=O) [des(1)-Ac-[D-Tyr2,Glu3,Thr5,Phe(3F)6,AzaGly7,Arg(Me)9,Trp10]MS10] | 2.7
10 | Ac-[dY]ENT[Phe(4-Cl)][azaGly]L[Arg(Me)]W-NH2 (SMILES CNC(=N)NCCC[C@H](NC(=O)[C@H](CC(C)C)NC(=O)NNC(=O)[C@H](Cc1ccc(Cl)cc1)NC(=O)[C@@H](NC(=O)[C@H](CC(N)=O)NC(=O)[C@H](CCC(=O)O)NC(=O)[C@@H](Cc1ccc(O)cc1)NC(C)=O)[C@@H](C)O)C(=O)N[C@@H](Cc1c[nH]c2ccccc12)C(N)=O) [des(1)-Ac-[D-Tyr2,Glu3,Thr5,Phe(4Cl)6,AzaGly7,Arg(Me)9,Trp10]MS10] | 1.9

Other lines, results leading:

Row | intracellular Ca ion level-increasing activity [specific activity to Metastin (1-54)] (relative to Metastin (1-54)) | Binder
11 | 1.5 | Ac-[dY]WNT[Phe(2-F)][azaGly]L[Arg(Me)]W-NH2 (SMILES CNC(=N)NCCC[C@H](NC(=O)[C@H](CC(C)C)NC(=O)NNC(=O)[C@H](Cc1ccccc1F)NC(=O)[C@@H](NC(=O)[C@H](CC(N)=O)NC(=O)[C@H](Cc1c[nH]c2ccccc12)NC(=O)[C@@H](Cc1ccc(O)cc1)NC(C)=O)[C@@H](C)O)C(=O)N[C@@H](Cc1c[nH]c2ccccc12)C(N)=O) [des(1)-Ac-[D-Tyr2,Trp3,Thr5,Phe(2F)6,AzaGly7,Arg(Me)9,Trp10]MS10]
12 | 1.3 | Ac-[dY]TNTF[azaGly]L[Arg(Me)]W-NH2 (SMILES CNC(=N)NCCC[C@H](NC(=O)[C@H](CC(C)C)NC(=O)NNC(=O)[C@H](Cc1ccccc1)NC(=O)[C@@H](NC(=O)[C@H](CC(N)=O)NC(=O)[C@@H](NC(=O)[C@@H](Cc1ccc(O)cc1)NC(C)=O)[C@@H](C)O)[C@@H](C)O)C(=O)N[C@@H](Cc1c[nH]c2ccccc12)C(N)=O) [des(1)-Ac-[D-Tyr2,Thr3,Thr5,AzaGly7,Arg(Me)9,Trp10]MS10]
13 | 1.3 | Ac-[dY][pY]NTF[azaGly]L[Arg(Me)]W-NH2 (SMILES CNC(=N)NCCC[C@H](NC(=O)[C@H](CC(C)C)NC(=O)NNC(=O)[C@H](Cc1ccccc1)NC(=O)[C@@H](NC(=O)[C@H](CC(N)=O)NC(=O)[C@H](Cc1ccc(OP(=O)(O)O)cc1)NC(=O)[C@@H](Cc1ccc(O)cc1)NC(C)=O)[C@@H](C)O)C(=O)N[C@@H](Cc1c[nH]c2ccccc12)C(N)=O) [des(1)-Ac-[D-Tyr2,Tyr(PO3H2)3,Thr5,AzaGly7,Arg(Me)9,Trp10]MS10]
14 | 1.5 | Ac-[dY][Hyp]NT[Phe(4-Cl)][azaGly]L[Arg(Me)]W-NH2 (SMILES CNC(=N)NCCC[C@H](NC(=O)[C@H](CC(C)C)NC(=O)NNC(=O)[C@H](Cc1ccc(Cl)cc1)NC(=O)[C@@H](NC(=O)[C@H](CC(N)=O)NC(=O)[C@@H]1C[C@@H](O)CN1C(=O)[C@@H](Cc1ccc(O)cc1)NC(C)=O)[C@@H](C)O)C(=O)N[C@@H](Cc1c[nH]c2ccccc12)C(N)=O) [des(1)-Ac-[D-Tyr2,Hyp3,Thr5,Phe(4Cl)6,AzaGly7,Arg(Me)9,Trp10]MS10]
15 | 1.7 | Ac-[dY][Pzc(2)]NTF[azaGly]L[Arg(Me)]W-NH2 [des(1)-Ac-[D-Tyr2,Pzc(2)3,Thr5,AzaGly7,Arg(Me)9,Trp10]MS10]
16 | 1.9 | Ac-[dY][Orn]NTF[azaGly]L[Arg(Me)]W-NH2 (SMILES CNC(=N)NCCC[C@H](NC(=O)[C@H](CC(C)C)NC(=O)NNC(=O)[C@H](Cc1ccccc1)NC(=O)[C@@H](NC(=O)[C@H](CC(N)=O)NC(=O)[C@H](CCCN)NC(=O)[C@@H](Cc1ccc(O)cc1)NC(C)=O)[C@@H](C)O)C(=O)N[C@@H](Cc1c[nH]c2ccccc12)C(N)=O) [des(1)-Ac-[D-Tyr2,Orn3,Thr5,AzaGly7,Arg(Me)9,Trp10]MS10]
17 | 0.2 | Ac-[dY]WNT[Phe(3-F)][azaGly]L[Arg(Me)]W-NH2 (SMILES CNC(=N)NCCC[C@H](NC(=O)[C@H](CC(C)C)NC(=O)NNC(=O)[C@H](Cc1cccc(F)c1)NC(=O)[C@@H](NC(=O)[C@H](CC(N)=O)NC(=O)[C@H](Cc1c[nH]c2ccccc12)NC(=O)[C@@H](Cc1ccc(O)cc1)NC(C)=O)[C@@H](C)O)C(=O)N[C@@H](Cc1c[nH]c2ccccc12)C(N)=O) [des(1)-Ac-[D-Tyr2,Trp3,Thr5,Phe(3F)6,AzaGly7,Arg(Me)9,Trp10]MS10]
18 | 1.8 | Ac-[dY]KNT[Phe(4-Cl)][azaGly]L[Arg(Me)]W-NH2 (SMILES CNC(=N)NCCC[C@H](NC(=O)[C@H](CC(C)C)NC(=O)NNC(=O)[C@H](Cc1ccc(Cl)cc1)NC(=O)[C@@H](NC(=O)[C@H](CC(N)=O)NC(=O)[C@H](CCCCN)NC(=O)[C@@H](Cc1ccc(O)cc1)NC(C)=O)[C@@H](C)O)C(=O)N[C@@H](Cc1c[nH]c2ccccc12)C(N)=O) [des(1)-Ac-[D-Tyr2,Lys3,Thr5,Phe(4Cl)6,AzaGly7,Arg(Me)9,Trp10]MS10]
19 | 2.4 | Ac-[dY]KNT[Phe(3-F)][azaGly]L[Arg(Me)]W-NH2 (SMILES CNC(=N)NCCC[C@H](NC(=O)[C@H](CC(C)C)NC(=O)NNC(=O)[C@H](Cc1cccc(F)c1)NC(=O)[C@@H](NC(=O)[C@H](CC(N)=O)NC(=O)[C@H](CCCCN)NC(=O)[C@@H](Cc1ccc(O)cc1)NC(C)=O)[C@@H](C)O)C(=O)N[C@@H](Cc1c[nH]c2ccccc12)C(N)=O) [des(1)-Ac-[D-Tyr2,Lys3,Thr5,Phe(3F)6,AzaGly7,Arg(Me)9,Trp10]MS10]
20 | 0.6 | Ac-[dY]WNT[Phe(4-Cl)][azaGly]L[Arg(Me)]W-NH2 (SMILES CNC(=N)NCCC[C@H](NC(=O)[C@H](CC(C)C)NC(=O)NNC(=O)[C@H](Cc1ccc(Cl)cc1)NC(=O)[C@@H](NC(=O)[C@H](CC(N)=O)NC(=O)[C@H](Cc1c[nH]c2ccccc12)NC(=O)[C@@H](Cc1ccc(O)cc1)NC(C)=O)[C@@H](C)O)C(=O)N[C@@H](Cc1c[nH]c2ccccc12)C(N)=O) [des(1)-Ac-[D-Tyr2,Trp3,Thr5,Phe(4Cl)6,AzaGly7,Arg(Me)9,Trp10]MS10]
